T1: neutrophil elastase (human, UniProt P08246 30-247, limits assumed)
T1 sequence (looked up): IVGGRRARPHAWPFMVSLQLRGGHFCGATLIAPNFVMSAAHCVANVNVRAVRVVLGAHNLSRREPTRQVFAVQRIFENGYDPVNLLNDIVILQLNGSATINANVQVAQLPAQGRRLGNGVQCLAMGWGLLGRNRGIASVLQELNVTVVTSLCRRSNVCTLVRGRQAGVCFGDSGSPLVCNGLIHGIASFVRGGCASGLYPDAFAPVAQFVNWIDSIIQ

B1: PMPD2-L10FLAG-APP-IP (designed binder)
chain: EEKCTPGQVKQQDCNTCTCTPTGVWGCTLMGCQPAVPGVGVPGVGVPGLGVPGVGVPGVGVPGVGVPGVGVPGLGVPGVGVPGVGVPGVGVPGVGVPGLGVPGVGVPGVGVPGVGVPGVGVPGLGVPGVGVPGVGVPGVGVPGVGVPGLGVPGVGVPGVGVPGVGVPGVGVPGLGVPGVGVPGVGVPGVGVPGVGVPGLGVPGVGVPGVGVPGVGVPGVGVPGLGVPGVGVPGVGVPGVGVPGVGVPGLGVPGVGVPGVGVPGVGVPGVGVPGLGVPGVGVPGVGDYKDDDDKISYGNDALMP
B2: PMPD2-L10FLAG (designed binder)
chain: EEKCTPGQVKQQDCNTCTCTPTGVWGCTLMGCQPAVPGVGVPGVGVPGLGVPGVGVPGVGVPGVGVPGVGVPGLGVPGVGVPGVGVPGVGVPGVGVPGLGVPGVGVPGVGVPGVGVPGVGVPGLGVPGVGVPGVGVPGVGVPGVGVPGLGVPGVGVPGVGVPGVGVPGVGVPGLGVPGVGVPGVGVPGVGVPGVGVPGLGVPGVGVPGVGVPGVGVPGVGVPGLGVPGVGVPGVGVPGVGVPGVGVPGLGVPGVGVPGVGVPGVGVPGVGVPGLGVPGVGVPGVGDYKDDDDK
B3: APP-IP-L10FLAG (designed binder)
chain: ISYGNDALMPVPGVGVPGVGVPGLGVPGVGVPGVGVPGVGVPGVGVPGLGVPGVGVPGVGVPGVGVPGVGVPGLGVPGVGVPGVGVPGVGVPGVGVPGLGVPGVGVPGVGVPGVGVPGVGVPGLGVPGVGVPGVGVPGVGVPGVGVPGLGVPGVGVPGVGVPGVGVPGVGVPGLGVPGVGVPGVGVPGVGVPGVGVPGLGVPGVGVPGVGVPGVGVPGVGVPGLGVPGVGVPGVGVPGVGVPGVGVPGLGVPGVGVPGVGDYKDDDDK

Legend:
[1] = biological target: Matrix metalloproteinase-2 (UniProt P08253 110-465, limits assumed); assay: cell-based or functional assay
[2] = biological target: T1, neutrophil elastase; assay: cell-based or functional assay

Chain of Matrix metalloproteinase-2 (P08253 110-465 limits assumed): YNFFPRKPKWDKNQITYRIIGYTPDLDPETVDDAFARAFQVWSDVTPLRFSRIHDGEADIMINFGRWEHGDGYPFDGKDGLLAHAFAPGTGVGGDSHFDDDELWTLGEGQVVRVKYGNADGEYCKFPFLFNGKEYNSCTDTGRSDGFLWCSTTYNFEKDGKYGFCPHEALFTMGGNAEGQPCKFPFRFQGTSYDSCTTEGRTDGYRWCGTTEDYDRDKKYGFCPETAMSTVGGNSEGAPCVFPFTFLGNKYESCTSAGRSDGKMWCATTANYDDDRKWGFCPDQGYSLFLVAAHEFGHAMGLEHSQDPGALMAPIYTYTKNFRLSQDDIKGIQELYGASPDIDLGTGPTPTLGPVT

| Binder | IC50 of MMP-2 inhibition (kinetic colorimetric substrate assay) [1] [µg/µL] | IC50 of NE inhibition (kinetic colorimetric substrate assay) [2] [ng/mL] | % inhibition of NE near the IC50 of the dual inhibitor [2] [%] |
| --- | --- | --- | --- |
| B1 | 0.04 | 0.85 |  |
| B2 |  | 7.08 |  |
| B3 | 0.05 |  | 8.4 |

From patent US20250235516A1 (UNIVERSITY OF SOUTH FLORIDA, published 2025)
